Experiments:
human NaPi2b = target: T1, human NaPi2b (Homo sapiens, UniProt O95436); assay: Flow cytometry binding to HEK293-6e cells transfected with human NaPi2b (Example 5); conditions: transfected HEK293-6e cells
T1 construct: host or cells: HEK293-6e
T1 sequence (O95436 1-690): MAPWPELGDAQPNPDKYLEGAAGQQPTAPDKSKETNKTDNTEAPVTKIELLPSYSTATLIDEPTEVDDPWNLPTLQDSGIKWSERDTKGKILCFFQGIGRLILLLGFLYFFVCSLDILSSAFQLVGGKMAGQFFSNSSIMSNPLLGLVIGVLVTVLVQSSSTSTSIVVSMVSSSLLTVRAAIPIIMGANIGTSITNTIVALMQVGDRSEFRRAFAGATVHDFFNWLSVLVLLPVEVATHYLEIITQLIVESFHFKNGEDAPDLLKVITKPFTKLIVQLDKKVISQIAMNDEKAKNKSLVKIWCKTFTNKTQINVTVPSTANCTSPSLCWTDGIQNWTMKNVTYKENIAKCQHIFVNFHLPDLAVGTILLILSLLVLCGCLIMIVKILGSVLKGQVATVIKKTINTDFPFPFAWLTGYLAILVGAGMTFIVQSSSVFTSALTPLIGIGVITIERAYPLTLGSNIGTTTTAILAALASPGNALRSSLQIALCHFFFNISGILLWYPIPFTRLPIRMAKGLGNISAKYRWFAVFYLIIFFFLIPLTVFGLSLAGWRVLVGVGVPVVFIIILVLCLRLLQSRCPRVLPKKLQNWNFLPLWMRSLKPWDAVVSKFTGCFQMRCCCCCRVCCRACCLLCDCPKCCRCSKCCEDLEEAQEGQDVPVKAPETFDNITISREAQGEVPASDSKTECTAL
Protocol: (§1) The binding cross-reactivity of humanized antibody variant v29456 to human, cynomolgus and mouse NaPi2b was assessed by flow cytometry using HEK293-6e transfected cells.
(§2) Briefly, HEK293-6e cells were transfected for ˜24 hours to transiently express human NaPi2b, cynomolgus or mouse NaPi2b, at 1 μg of DNA per 1 million cells. Following transfection, 50,000 cells per well were seeded in V-bottom 96-well plates and incubated with 200 nM of primary antibody for 18-24 hours at 4° C. to prevent internalization. Post-incubation, cells were washed and stained with anti-Human IgG Fc AF647 conjugate (Jackson Immuno Research Labs, West Grove, PA, Cat. No. 109-605-098, Lot. No. 124868) at 4° C. for 1 hour. Following staining and washing, fluorescence was detected by flow cytometry on BD LSRFortessa™ Cell Analyzer (BD Biosciences, Franklin Lake, NJ) with 10,000 minimum events collected per well. The AF647/APC-A GeoMean (fluorescence signal geometric mean, proportional to anti-Human AF647 binding) was calculated for the live singlet cell population for each primary antibody using FlowJo™ v8 software (BD Biosciences, Franklin Lake, NJ). The Bmax and Kd of each primary antibody were calculated using GraphPad Prism Version 9 (GraphPad Software, San Diego, CA)

cynomolgus NaPi2b = assay: Flow cytometry binding to HEK293-6e cells transfected with cynomolgus NaPi2b (Example 5); conditions: transfected HEK293-6e cells
Sequence of cynomolgus NaPi2b (as listed by the source): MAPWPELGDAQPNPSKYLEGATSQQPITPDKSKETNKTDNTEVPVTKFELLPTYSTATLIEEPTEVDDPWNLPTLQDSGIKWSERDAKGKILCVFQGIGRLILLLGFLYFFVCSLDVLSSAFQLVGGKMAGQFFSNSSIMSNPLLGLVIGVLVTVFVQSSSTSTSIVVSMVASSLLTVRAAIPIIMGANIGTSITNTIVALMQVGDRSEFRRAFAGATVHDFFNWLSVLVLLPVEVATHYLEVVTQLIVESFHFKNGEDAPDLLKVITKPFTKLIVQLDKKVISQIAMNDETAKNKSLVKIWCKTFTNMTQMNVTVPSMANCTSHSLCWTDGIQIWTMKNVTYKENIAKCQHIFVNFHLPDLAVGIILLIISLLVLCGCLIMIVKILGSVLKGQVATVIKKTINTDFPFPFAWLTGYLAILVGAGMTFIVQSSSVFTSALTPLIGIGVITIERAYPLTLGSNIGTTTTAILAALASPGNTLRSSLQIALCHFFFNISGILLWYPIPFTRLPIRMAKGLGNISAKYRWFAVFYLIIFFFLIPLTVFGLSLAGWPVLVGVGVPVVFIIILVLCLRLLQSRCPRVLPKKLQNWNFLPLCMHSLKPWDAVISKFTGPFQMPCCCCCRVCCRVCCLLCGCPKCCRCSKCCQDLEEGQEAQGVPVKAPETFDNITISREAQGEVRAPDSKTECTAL
Protocol: as §1, §2

HCC-78 cells = assay: Internalization by flow cytometry in HCC-78 cells; assay type: cell-based, human; conditions: antibody 10 nM
Protocol: Briefly, antibodies were fluorescently labeled by coupling to a Fab fragment AF488 conjugate targeting anti-Human IgG Fe (Jackson Immuno Research Labs, West Grove, PA; Cat. No. 109-547-008) at a 1:1 molar ratio in PBS pH 7.4 (Thermo Fisher Scientific, Waltham, MA; Cat. No. 10010-023), for 24 hours at 4° C. Cells were seeded at 50,000 cells/well in RPMI 1640, ATCC modification (Thermo Fisher Scientific, Waltham, MA) supplemented with 10% fetal bovine serum (Thermo Fisher Scientific, Waltham, MA) in 48-well plates and incubated overnight under standard culturing conditions (37° C./5% CO2) to allow attachment. […] Following incubation, cells were dissociated, washed, and surface AF488 fluorescence was quenched using an anti-AF488 antibody (Life Technologies, Carlsbad, CA; Cat. No. A-11094) at 100 nM for 30 minutes at 4° C. […] (internalized fluorescence) was detected by flow cytometry on a BD LSRFortessa™ Cell Analyzer (BD Biosciences, Franklin Lake, NJ) with 1,000 minimum events collected per well. The AF488/FITC-A GeoMean (fluorescence signal geometric mean, proportional to anti-Human Fab AF488 labelling) was calculated for the live single cell population using FlowJo™ Version 10.8.1 (BD Biosciences, Franklin Lake, NJ) and plotted using GraphPad Prism Version 9 (GraphPad Software, San Diego, CA).

[1] = target: T2, NaPi2b expressed on IGROV-1 cells (Homo sapiens, UniProt O95436); assay: Cellular binding of antibody and ADCs to IGROV-1 cells by flow cytometry (Example 14)
T2 construct: IGROV-1 cells express endogenous NaPi2b at a high level; endogenous in cells; host or cells: IGROV-1
T2 sequence (O95436 1-690): T1 sequence (O95436 1-690)
Protocol: as §2
The ability of ADCs to bind to cells expressing NaPi2b was assessed. […] Binding to endogenous high NaPi2b-expressing cell lines IGROV-1 and HCC-78 was assessed by flow cytometry according to methods described in Example 5.

[2] = target: T2, NaPi2b expressed on IGROV-1 cells; assay: Cellular binding to IGROV-1 cells by flow cytometry (Example 19); conditions: NB = no binding (apparent Kd >150 nM)
Protocol: Briefly, cells were seeded at 50,000 cells/well in conical-bottom 96-well plates and treated with test antibody for 24 hours at 4° C. to prevent internalization. Palivizumab (anti-RSV antibody, v22277) was included as a negative control. […] Following incubation, cells were washed and stained with anti-Human IgG Fc AF647 conjugate (Jackson Immuno Research Labs, West Grove, PA; Cat. No. 109-605-098) at 4° C. for 30 min. Following incubation and washing, fluorescence was detected by flow cytometry on a BD LSRFortessa™ Cell Analyzer (BD Biosciences, Franklin Lake, NJ) with 1,000 minimum events collected per well. The AF647/APC-A GeoMean (fluorescence signal geometric mean, proportional to anti-Human AF647 binding) was calculated for the live cell population using FlowJo™ Version 10.8.1 (BD Biosciences, Franklin Lake, NJ) and plotted for each test antibody using GraphPad Prism Version 9 (GraphPad Software, San Diego, CA).
The ability of the humanized antibody variants v38591 and v29456 to bind to NaPi2b expressed on cells was assessed on endogenous NaPi2b-expressing tumor cell lines IGROV-1 (ovarian adenocarcinoma) and TOV-21G (ovarian carcinoma) by flow cytometry. IGROV-1 and TOV-21G cells express endogenous NaPi2b at high and moderate levels, respectively, as described in Example 10.
Cellular binding was performed according to methods described in Example 13.

Substance: v22277: anti-RSV antibody palivizumab, negative control; has a heterodimeric Fc [reference compound]
- Binding to human NaPi2b, in words (human NaPi2b): did not bind
- Binding to cynomolgus NaPi2b, in words (cynomolgus NaPi2b): did not bind
- Internalized Fluorescence Fold-Over Palivizumab (HCC-78 cells; HCC-78, 5 hrs): 1.0 fold
- Internalized Fluorescence Fold-Over Palivizumab (HCC-78 cells; HCC-78, 24 hrs): 1.0 fold
- Binding to IGROV-1 cells, in words [1]: did not bind
- Kd [2]: > 150 nM
